From US20260250402A1 (C O INMAGENE PTE, published 2026)
Read-outs that look alike come from different tables or passages of the source.

T1: human IL-7Ra expressed on CHOK1-human IL-7Ra cells (human, UniProt P16871 21-459)
T1 construct: also called human IL-7Ra expressed on cell membrane; CD127
T1 sequence: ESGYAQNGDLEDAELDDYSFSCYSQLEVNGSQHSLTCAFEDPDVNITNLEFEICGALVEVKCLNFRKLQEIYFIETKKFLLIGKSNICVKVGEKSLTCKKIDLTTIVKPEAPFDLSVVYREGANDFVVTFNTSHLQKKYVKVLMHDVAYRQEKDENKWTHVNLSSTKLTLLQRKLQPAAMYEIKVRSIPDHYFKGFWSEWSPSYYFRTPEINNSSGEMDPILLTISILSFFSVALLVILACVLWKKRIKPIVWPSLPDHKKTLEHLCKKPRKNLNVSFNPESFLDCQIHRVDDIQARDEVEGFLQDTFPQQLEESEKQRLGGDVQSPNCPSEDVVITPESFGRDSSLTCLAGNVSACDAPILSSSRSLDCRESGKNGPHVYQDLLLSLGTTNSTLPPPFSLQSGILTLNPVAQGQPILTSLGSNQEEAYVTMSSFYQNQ

T2: Human his-tag IL-7Ra protein (human, UniProt P16871 21-239)
T2 construct: Construct not described; Position of the tag unknown; also called IL-7Ra (Biacore analyte); not shown: his tag
T2 sequence: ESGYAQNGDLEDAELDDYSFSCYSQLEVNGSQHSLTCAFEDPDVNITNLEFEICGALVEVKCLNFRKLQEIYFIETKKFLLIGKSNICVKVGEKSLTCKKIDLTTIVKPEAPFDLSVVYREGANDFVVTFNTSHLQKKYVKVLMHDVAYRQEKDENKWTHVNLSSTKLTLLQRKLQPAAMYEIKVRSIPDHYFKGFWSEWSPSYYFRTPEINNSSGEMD

T3: cynomolgus IL-7Ra expressed on CHOK1-cyno IL-7Ra cells (cynomolgus, UniProt Q38IC7 21-459)
T3 sequence: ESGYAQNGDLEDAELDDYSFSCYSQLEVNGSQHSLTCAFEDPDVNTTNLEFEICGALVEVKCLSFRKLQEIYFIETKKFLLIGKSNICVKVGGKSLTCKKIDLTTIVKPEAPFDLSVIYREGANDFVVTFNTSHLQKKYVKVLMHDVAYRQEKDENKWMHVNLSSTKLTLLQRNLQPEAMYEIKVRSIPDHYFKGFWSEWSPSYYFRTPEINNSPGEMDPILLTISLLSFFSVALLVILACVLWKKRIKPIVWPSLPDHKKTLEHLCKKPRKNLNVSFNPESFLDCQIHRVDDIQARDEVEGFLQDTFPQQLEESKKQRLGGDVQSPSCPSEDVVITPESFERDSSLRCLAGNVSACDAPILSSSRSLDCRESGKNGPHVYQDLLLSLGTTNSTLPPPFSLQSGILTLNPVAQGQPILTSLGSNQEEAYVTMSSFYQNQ

T4: cynomolgus Fc-tag IL-7Ra protein (cynomolgus, UniProt Q38IC7 21-240)
T4 construct: also called cynomolgus IL-7Ra protein; not shown: Fc tag
T4 sequence: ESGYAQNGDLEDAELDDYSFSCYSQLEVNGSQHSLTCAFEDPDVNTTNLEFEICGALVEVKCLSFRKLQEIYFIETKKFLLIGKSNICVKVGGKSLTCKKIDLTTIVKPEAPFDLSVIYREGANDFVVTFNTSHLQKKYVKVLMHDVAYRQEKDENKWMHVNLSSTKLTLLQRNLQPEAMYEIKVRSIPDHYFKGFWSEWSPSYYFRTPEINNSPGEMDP

T5: human Fc-tag IL-7Ra protein (human, UniProt P16871 21-239)
T5 construct: also called human IL-7Ra protein; not shown: Fc tag fused to the N-terminus
T5 sequence: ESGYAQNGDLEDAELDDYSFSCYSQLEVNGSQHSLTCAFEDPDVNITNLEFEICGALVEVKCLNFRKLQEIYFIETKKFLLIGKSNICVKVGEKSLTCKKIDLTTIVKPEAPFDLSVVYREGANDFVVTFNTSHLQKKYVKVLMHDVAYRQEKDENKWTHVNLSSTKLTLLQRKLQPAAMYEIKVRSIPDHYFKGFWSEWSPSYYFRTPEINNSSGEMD


Assays:
[1] = biological target: cynomolgus IL-7Ra expressed on CHOK1-cyno IL-7Ra cells (cynomolgus) (UniProt Q38IC7); assay: flow cytometry, CHOK1-cyno IL-7Ra cells; negative control
[2] = biological target: human IL-7Ra expressed on CHOK1-human IL-7Ra cells (human) (UniProt P16871); assay: flow cytometry, CHOK1-human IL-7Ra cells; negative control
[3] = biological target: T1, human IL-7Ra expressed on CHOK1-human …; assay: flow cytometry blocking assay: binding of hIL-7-his to CHOK1-human IL-7Ra cells in the presence of the antibody, MFI (right panel)
[4] = biological target: T2, Human his-tag IL-7Ra protein; assay: SPR Biacore 8K, antibody Fc-captured, human his-tag IL-7Ra analyte, 1:1 model
[5] = biological target: T1, human IL-7Ra expressed on CHOK1-human …; assay: flow cytometry, CHOK1-human IL-7Ra cells
[6] = biological target: T3, cynomolgus IL-7Ra expressed on …; assay: flow cytometry, CHOK1-cyno IL-7Ra cells
[7] = biological target: T3, cynomolgus IL-7Ra expressed on …; assay: flow cytometry on CHOK1-cyno IL-7Ra cells, MFI (upper right panel)
[8] = biological target: T1, human IL-7Ra expressed on CHOK1-human …; assay: flow cytometry on CHOK1-human IL-7Ra cells, MFI (upper left panel)
[9] = biological target: T3, cynomolgus IL-7Ra expressed on …; assay: flow cytometry on CHOK1-cyno IL-7Ra cells, MFI (upper right panel); remark: listed apart in the source
[10] = biological target: T1, human IL-7Ra expressed on CHOK1-human …; assay: flow cytometry blocking assay: binding of hIL-7-his (0.1 ug/ml) to CHOK1-human IL-7Ra cells in the presence of the antibody, anti-His Alexa Fluor 488, MFI (right panel)
[11] = biological target: T4, cynomolgus Fc-tag IL-7Ra protein; assay: ELISA, cynomolgus Fc-tag IL-7Ra protein, HRP-labelled secondary antibody, OD 450 (right panel)
[12] = biological target: T5, human Fc-tag IL-7Ra protein; assay: ELISA, plate coated with human Fc-tag IL-7Ra protein, HRP-labelled secondary antibody, OD 450 (left panel)
[13] = biological target: T1, human IL-7Ra expressed on CHOK1-human …; assay: flow cytometry on CHOK1-human IL-7Ra cells, MFI (upper left panel); remark: listed apart in the source
[14] = biological target: T1, human IL-7Ra expressed on CHOK1-human …; assay: flow cytometry blocking assay: binding of hIL-7-his (0.1 ug/ml) to CHOK1-human IL-7Ra cells in the presence of the antibody, anti-His Alexa Fluor 488, MFI (left panel)

EC50 [1] [µg/mL] | Top (MFI) [1] [MFI] | EC50 [2] [µg/mL] | Top (MFI) [2] [MFI] | IC50 (read off the curve) [3] [µg/mL] | Kd [4] [nM] | koff [4] [s⁻¹] | kon [4] [M⁻¹ s⁻¹] | EC50 [5] [µg/mL] | Top (MFI) [5] [MFI] | EC50 [6] [µg/mL] | Top (MFI) [6] [MFI] | EC50 (read off the curve) [7] [µg/mL] | EC50 (read off the curve) [8] [µg/mL] | EC50 (read off the curve) [9] [µg/mL] | IC50 (read off the curve) [10] [µg/mL] | EC50 (read off the curve) [11] [µg/mL] | EC50 (read off the curve) [12] [µg/mL] | EC50 (read off the curve) [13] [µg/mL] | IC50 (read off the curve) [14] [µg/mL] | Molecule
32.2 | 93.7 | 6.8 | 73 | – | – | – | – | – | – | – | – | – | – | – | – | – | – | – | – | isotype hIgG4 antibody (negative control)
– | – | – | – | ~0.1 | 0.18 | 0.000292 | 1.63e+06 | 0.0326 | 24400 | 0.0325 | 16300 | – | – | – | – | – | – | – | – | HuAb013 (antibody, V domains shown, Humanized version of cmAb011; also called humanized VL1 / humanized VH4) VH: QVQLVQSGAEVKKPGASVKVSCKASGYRFTDYELHWVRQAPGQGLEWMGGIDPKTGGTAYNQKFKGKVTLTSDRSTSTVYMELSSLRSEDTAVYYCARSGGRWYFDVWGQGTTVTVSS VL: DIVLTQSPASLAVSPGQRATITCRTSESVSIHLLHLMHWYQQKPGQPPKLLIYGASNLESGVPARFSGSGSGTDFTLTINPVEAEDTANYYCQQSIKDPYTFGGGTKVEIK
– | – | – | – | – | 0.385 | 0.000252 | 656000 | 0.387 | 24300 | 0.51 | 19100 | ~0.3 | ~0.08 | ~0.1 | ~0.07 | ~0.03 | ~0.02 | ~0.2 | – | OSE127 (Tab2) (antibody, human IgG4 S228P, kappa, V domains shown, also called benchmark antibody OSE127) VH: QVQLVESGGGLVKPGGSLRLSCAVSGFTLSDYYMAWIRQAPGKGLEWVSTISASGLRTYYPDSVKGRFTISRDNAKNSLYLQMNSLRAEDTAVYYCARPLSAHYGFNYFDYWGQGTLVTVSS VL: DIQMTQSPSSLSASVGDRVTITCRTSEDIYQGLAWYQQKPGKAPKLLLYSANTLHIGVPSRFSGSGSGTDYTLTISSLQPEDFATYYCQQYYDYPLAFGGGTKVEIKR
– | – | – | – | – | 0.143 | 0.000234 | 1.64e+06 | 0.0842 | 22400 | 0.134 | 18400 | ~0.3 | – | – | – | ~0.04 | ~0.02 | ~0.2 | – | cmAb011 (chimeric Ab011) (antibody, V domains shown, also called chimeric antibody Ab011) VH: QVQLQQSGAELMRPGASVTLSCKTSGYRFTDYELHWVKQTPVRGLEWIGGIDPKTGGTAYNQKFKGKAILTSDRSSSTTYMELRSLASEDSAVYYCTRSGGRWYFDVWGTGTTVTVSS VL: DIVLTQSPASLAVSLGQRATISCRTSESVSIHLLHLMHWYQQKPGQPPKLLIYGASNLESGVPARFSGSGSETDFTLNIHPVEEEDAATYFCQQSIKDPYTFGGGTKLEIKR
– | – | – | – | – | 0.258 | 0.000297 | 1.15e+06 | 0.31 | 26000 | 0.289 | 20800 | ~0.2 | – | – | – | ~0.03 | ~0.01 | ~0.1 | ~0.1 | ADX-914 (Tab1) (antibody, human IgG1, kappa, V domains shown, also called benchmark antibody ADX-914) VH: EVQLVESGGGLVQPGRSLRLSCAASGFTFDDHAMHWVRQAPGKGLEWVSGISWNSRGIGYADSVKGRFTIFRDNAKNSLYLQMNSLRAEDTALYYCAKDEYSRGYYVLDVWGQGTTVTVSS VL: AIQLTQSPSSLSASVGDRVTITCRASQGISSALAWYQQKPGKAPKLLIYDASSLESGVPSRFSGSGSGTDFTLTISSLQPEDFATYYCQQFNSYPLWITFGQGTRLEIKR
